Measurements published in patent US20250277026A1 (NOVAROCK BIOTHERAPEUTICS, published 2025).

Assays:
human Claudin-6 [1] = molecular target: T1, human Claudin-6 (human, UniProt P56747 1-220); test: FACS, Claudin-6-HEK293 cells, 10 µg/ml, hybridoma-purified antibody
T1 construct: also called CLDN6
T1 sequence: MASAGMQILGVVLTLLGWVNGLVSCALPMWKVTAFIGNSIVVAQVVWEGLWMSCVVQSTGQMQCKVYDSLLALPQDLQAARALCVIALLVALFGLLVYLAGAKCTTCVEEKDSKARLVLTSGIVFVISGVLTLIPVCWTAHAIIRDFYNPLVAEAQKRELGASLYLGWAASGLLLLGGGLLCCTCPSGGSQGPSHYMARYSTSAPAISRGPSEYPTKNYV

human Claudin-6 [2] = molecular target: T1, human Claudin-6; test: FACS dose response, Claudin-6-CHO-K1 cells, hybridoma-purified antibody
Protocol: (§1) The anti-CLDN6 antibodies were also evaluated for their binding affinity to Claudin-6 overexpressing cell lines by FACS.

human Claudin-6 [3] = molecular target: T1, human Claudin-6; test: FACS, NEC8 cells (endogenous CLDN6), 10 µg/ml, hybridoma-purified antibody
Protocol: (§2) Cells were fixed with 2% PFA (Alfa Aesar, catalog number: J61899) for 15 minutes at 4° C. and then washed. […] Flow cytometric analyses were performed on a flow cytometry instrument (Intellicyte, IQue plus, Sartorius).

human Claudin-3 = molecular target: T2, human Claudin-3 (human, UniProt O15551 1-220); test: FACS, CHO-K1 cells overexpressing Claudin-3 (CHO-K1-CLDN3), serial dilution, MFI
T2 construct: On transfected CHO-K1 cells, or endogenous on MCF7 cells; also called CLDN3
T2 sequence: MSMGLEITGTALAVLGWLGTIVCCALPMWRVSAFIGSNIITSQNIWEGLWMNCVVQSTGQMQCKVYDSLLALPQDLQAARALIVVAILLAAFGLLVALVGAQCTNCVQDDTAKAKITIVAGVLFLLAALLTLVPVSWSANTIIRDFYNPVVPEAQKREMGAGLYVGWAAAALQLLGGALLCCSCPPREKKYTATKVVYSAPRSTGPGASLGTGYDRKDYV

human Claudin-6 [4] = molecular target: T1, human Claudin-6; test: FACS dose response, NEC8 cells (endogenous CLDN6), hybridoma-purified antibody
Protocol: as §2, §1

human Claudin-9 = molecular target: T3, human Claudin-9 (human, UniProt O95484 1-217); test: FACS, Claudin-9-HEK293 cells, 10 µg/ml, hybridoma-purified antibody
T3 construct: On transfected HEK293 cells; also called CLDN9
T3 sequence: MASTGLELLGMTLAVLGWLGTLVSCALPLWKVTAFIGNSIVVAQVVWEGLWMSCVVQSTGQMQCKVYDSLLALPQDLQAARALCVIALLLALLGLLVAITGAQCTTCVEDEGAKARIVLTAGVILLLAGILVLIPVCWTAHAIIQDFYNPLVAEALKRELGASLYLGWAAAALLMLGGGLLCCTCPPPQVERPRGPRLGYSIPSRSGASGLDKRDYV

human Claudin-6 [5] = molecular target: T1, human Claudin-6; test: FACS dose response, Claudin-6-HEK293 cells, hybridoma-purified antibody
Protocol: as §1

B1: NR.N6.Ab6 (antibody, V domains shown)
VH: QVQLQESGPGLVKPSETLSLTCTVSGGSISSYYWSWIRQPPGKGLEWIGYIYYSGSTNYNPSLKSRVTISLDTSKNQFSLKLTSVTAADTAVYYCARGSIPVAGTSYFYYYGMDVWGQGTTVTVSS
VL: EIVMTQSPATLSLSPGERATLSCRASQSVSSSYLSWYQQKPGQAPRLLIYGASTRATGIPARFSGSGSGTDFTLTISSLQPEDFAVYYCQQDYNLPWTFGQGTKVEIK
Human Claudin-6 [1]
  fold MFI over isotype control: 60 fold
Human Claudin-6 [2]
  EC50: 3.06 nM
Human Claudin-6 [3]
  fold MFI over isotype control: 23 fold
Human Claudin-3
  binding result: no binding (tested: log 1.8 (about 67 nM))
Human Claudin-6 [4]
  EC50: 5.63 nM
Human Claudin-9
  fold MFI over isotype control: 47 fold
Human Claudin-6 [5]
  EC50: 4.11 nM
